Measured values: patent EP3848397A1 (NANJING UMAB-BIOPHARMA CO., LTD., dated 2021)
Like-named read-outs stand apart in the source and are kept apart here.

How the values were obtained:
Assay in all cases: cell-based or functional assay
[1] = molecular target: T1, OX40 on Jurkat-OX40-NFκB-luciferase reporter cells (UniProt P43489 29-277)
T1 sequence (looked up): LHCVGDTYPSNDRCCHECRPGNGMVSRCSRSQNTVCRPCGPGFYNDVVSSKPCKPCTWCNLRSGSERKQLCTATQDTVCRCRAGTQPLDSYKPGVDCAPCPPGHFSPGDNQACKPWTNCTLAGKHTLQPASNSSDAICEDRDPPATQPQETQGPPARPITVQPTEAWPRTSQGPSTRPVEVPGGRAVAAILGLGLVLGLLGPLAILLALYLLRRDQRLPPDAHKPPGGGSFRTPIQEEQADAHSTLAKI

[2] = molecular target: T1, OX40 on Jurkat-OX40-NFκB-luciferase …; remark: listed apart in the source
[3] = molecular target: T1, OX40 on Jurkat-OX40-NFκB-luciferase …; remark: listed apart in the source

Activation activity of OX40 signaling pathway, EC50 [1]: 0.178 nM | Activation activity of OX40 signaling pathway, EC50 [2]: 0.325 nM | EC50 of NFκB-luciferase reporter activation (FcR-mediated) [3]: 0.0452 ng/mL
B1: MT01-C1 (antibody, human IgG1, V domains shown)
VH: EVQLVQSGAEVKKPGESLKISCKASGYTFTSYVMHWLRQMPGKGLEWMGYINPYNDGTKYNEKFKGQVTISSDKSISTAYLQWSSLKASDTAMYYCANYYGSKFAMDYWGQGTMVTVSS
VL: DIQMTQSPSSVSASVGDRVTITCRASQDISNYLSWYQQKPGGAVKLLIYYTSRLHSGVPSRFSGSGSGTDYTLTISSLQPEDFATYFCQQGITLPWTFGQGTKVEIK
